Usually pKa stands for the negative logarithm of the acid dissociation constant.

For one data set, the target named is His260 (UniProt position 260, SAYHCHLTYLK). The data set is described as follows: not stated for the pKa value; the article cites resonance Raman, MAS NMR and absorption studies. To be noted: Pr (dark-adapted) state, PCB-bound holoprotein; cited from earlier work.
Data set [1] deals with the molecule itself. In words: crystal structure; X-ray, 3.7 Å; crystals grown in 0.3 M ammonium formate, 0.1 M HEPES pH 6.9, 18% Sokalan CP7; four protomers in the asymmetric unit.

As to “Phytochrome-like protein Cph1 (cyanobacterial phytochrome 1), photosensory module, wild type (Synechocystis sp. PCC 6803)”, the pKa with His260 is 7.5.

B1: Cph1 Y176H variant of the Cph1 photosensory module (residues 1-514; NTS, nPAS, GAF and PHY domains), crystallization construct with N141R (domain or fragment, Synechocystis 6803, UniProt Q55168 1-514, looked up)
chain: MATTVQLSDQSLRQLETLAIHTAHLIQPHGLVVVLQEPDLTISQISANCTGILGRSPEDLLGRTLGEVFDSFQIDPIQSRLTAGQISSLNPSKLWARVMGDDFVIFDGVFHRNSDGLLVCELEPAYTSDNLPFLGFYHMARAALNRLRQQANLRDFYDVIVEEVRRMTGFDRVMLHRFDENNHGDVIAEDKRDDMEPYLGLHYPESDIPQPARRLFIHNPIRVIPDVYGVAVPLTPAVNPSTNRAVDLTESILRSAYHCHLTYLKNMGVGASLTISLIKDGHLWGLIACHHQTPKVIPFELRKACEFFGRVVFSNISAQEDTETFDYRVQLAEHEAVLLDKMTTAADFVEGLTNHPDRLLGLTGSQGAAICFGEKLILVGETPDEKAVQYLLQWLENREVQDVFFTSSLSQIYPDAVNFKSVASGLLAIPIARHNFLLWFRPEVLQTVNWGGDPNHAYEATQEDGKIELHPRQSFDLWKEIVRLQSLPWQSVEIQSALALKKAIVNLILRQAEE
modifications: phycocyanobilin (PCB) chromophore covalently attached to Cys259
notes: Cyanobacterial phytochrome Cph1 from Synechocystis 6803, photosensor residues 1-514 (NTS, nPAS, GAF and PHY domains), with Y176H and, for crystallization, N141R; PDB 2VEA is the wild-type parent; not shown: His6, N-terminal, cleaved
Consider B1, for which the binding result in data set [1] is given as “binds”.

The record behind these values is paper PMC11924222, “Integrated Study of Fluorescence Enhancement in the Y176H Variant of Cyanobacterial Phytochrome Cph1” (Biochemistry, 2025).
